Test results as given in patent publication EP4428145A1, “ANTIBACTERIAL PEPTIDE” (Sumitomo Chemical Company, Limited, priority 2021, dated 2024).
Primed or numbered codes have the meaning given here. Where no end group is shown, it is not given here. [ ]: non-standard residue; d: D form. Dhb′ = not defined here; Dha = C=C(N)C(=O)O

Tests used:
Format in all cases: cell-based, Lactobacillus sakei
L. sakei [1] = assay: Oxidation stability test, antimicrobial activity after hydrogen peroxide treatment, spot-on-lawn (Experiment 8); set-up: key to Antimicrobial activity, Before oxidation treatment / Antimicrobial activity, After oxidation treatment: -: Without antimicrobial activity; +: With antimicrobial activity; ++: With strong antimicrobial activity; +++: With very strong antimicrobial activity; details: for Antimicrobial activity, After oxidation treatment: 1-mM solution treated with 10 mM hydrogen peroxide at 40°C for 6 hours
Experimental: (§1) Like in Experiment 1A, antimicrobial activity of the antimicrobial peptide was evaluated by a spot-on-lawn method. As the test bacteria, Lactobacillus sakei (NBRC15893) was used. After overnight culturing, the test bacteria were mixed and diluted with Lactobacilli AOAC agar so as to achieve a density of 4×10^7 CFU/mL, and the resultant was spread over an MRS plate containing 2% agar. The test liquid was spotted on the test bacteria, and incubated overnight at 30°C. The size of the growth inhibition circle of L. sakei was evaluated as the antimicrobial activity.
(§2) Nisin A used in Examples was Nisin from Lactococcus lactis 2.5% (manufactured by Sigma-Aldrich corporation) that was used after concentration and purification. The details of nisin A are as described by J. C. Slootweg et al., J. Pept. Sci., 19, 692-699(2013). To 1 g of commercially available 2.5% nisin A (containing about 25 mg of nisin A), 25 mL of water was added, and the resultant was stirred for 15 minutes at room temperature. Centrifugation (15 minutes, 2500 rpm) was carried out to separate off the precipitate, and only the supernatant was transferred to another tube. To the resulting solution, 20 mL of dichloromethane was added. To collect the white precipitate that was present between the aqueous layer and the organic layer, the upper layer and the lower layer were removed. Another round of centrifugation (15 minutes, 2500 rpm) was carried out to remove, again, the upper layer and the lower layer. The intermediate layer that was sought after was dried in a reduced-pressure centrifuge and re-dissolved in 7.45 mL of water, and thereby a 1-mM purified Nisin product was obtained. The resulting purified product was used as nisin A in each stability test.
The method of oxidation treatment is as described by Toshihiro T. et al., J. Proteome Res., 12, 753-762(2013). To a 1-mM solution of lactobacin A or nisin A, hydrogen peroxide was added to achieve a final concentration of 10 mM, followed by reaction at 40°C for 6 hours. After the completion of reaction, the reaction liquid was diluted with water to achieve a polypeptide concentration of 10 µM or 1 µM. By the same spot-on-lawn method as adopted in the above-mentioned antimicrobial activity test, the polypeptide was added in drops to form a growth inhibition circle of L. sakei, and thereby the antimicrobial activity of the polypeptide after oxidation treatment was evaluated. Development of the oxidation reaction was calculated as a relative value of the peak area obtained by LC/MS measurement of the oxidation-treated test solution relative to the non- oxidation-treated test solution. As a positive control (PC), culture supernatant of a nisin A-producing lactic acid bacterium (Lactococcus lactis ATCC-11454 strain) was used.

L. sakei [2] = assay: Thermal stability test, antimicrobial activity after heat treatment, spot-on-lawn (Experiment 7); set-up: key to Antimicrobial activity after heat treatment / Antimicrobial activity, Untreated: -: Without antimicrobial activity; +: With antimicrobial activity; ++: With strong antimicrobial activity; +++: With very strong antimicrobial activity; details: for thermal stability of antimicrobial activity: result in words
Experimental: as §1, §2
The test solution was subjected to heat treatment at 80°C for 10 minutes, or at 80°C for 30 minutes, or at 100°C for 10 minutes, or at 100°C for 30 minutes, or at 121°C for 15 minutes. By the same spot-on-lawn method as adopted in the above-mentioned antimicrobial activity test, the polypeptide was added in drops to form a growth inhibition circle of L. sakei, and thereby the antimicrobial activity of the polypeptide after heat treatment was evaluated. As a positive control (PC), culture supernatant of a nisin A-producing lactic acid bacterium (Lactococcus lactis ATCC-1 1454 strain) was used. A sample without the heat process was used as an untreated control.

L. sakei [3] = assay: Wide pH-range stability test, antimicrobial activity after pH treatment, spot-on-lawn (Experiment 6); set-up: key to Antimicrobial activity after pH treatment / Antimicrobial activity, Untreated: -: Without antimicrobial activity; +: With antimicrobial activity; ++: With strong antimicrobial activity; +++: With very strong antimicrobial activity; details: for Antimicrobial activity after pH treatment: 30°C
Experimental: as §1
Each peptide was redissolved and prepared in the following buffer; Sodium acetate-acetic acid (50 mM, pH4.0), Sodium phosphate (50 mM, pH7.4), glycine-NaOH (50 mM, pH10.0). The test solution thus prepared at the above-specified pH was incubated at 30°C. The duration of the incubation was 0 hours, 0.5 hours, 2 hours, 4 hours, 6 hours, and 24 hours, and at the completion of the incubation, TFA was added in a final concentration of 0.2%. […] By the same spot-on-lawn method as adopted in the above-mentioned antimicrobial activity test, the polypeptide was added in drops to form a growth inhibition circle of L. sakei, and thereby the antimicrobial activity of the polypeptide after pH treatment was evaluated. As a positive control (PC), culture supernatant of a nisin A-producing lactic acid bacterium (Lactococcus lactis ATCC-11454 strain) was used. A sample that was prepared solely with a 0.2% TFA aqueous solution was used as an untreated control.
as §2

nisin A (I[Dhb′]SI[Dha]LCTPGCKTGALMGCNMKTATCHCSIHV[Dha]K; thioether (positions not given here); not fully specified (some residues, bridges); also: lanthionine thioether crosslinks and dehydro residues, not placed; UniProt P13068 24-57, looked up) [Nisin from Lactococcus lactis 2.5% (Sigma-Aldrich) used after concentration and purification; known antimicrobial peptide]
Antimicrobial activity, Before oxidation treatment (L. sakei [1]; 1 µM): + | Antimicrobial activity, Before oxidation treatment (L. sakei [1]; 10 µM): ++ | Antimicrobial activity, After oxidation treatment (L. sakei [1]; diluted to 1 µM): - | Antimicrobial activity, After oxidation treatment (L. sakei [1]; diluted to 10 µM): - | oxidation stability of antimicrobial activity (L. sakei [1]; result in words, after oxidation treatment with 10-mM hydrogen peroxide): lost its antimicrobial activity | Antimicrobial activity after heat treatment (L. sakei [2]; 10 µM, 80°C 10 mm): + | Antimicrobial activity after heat treatment (L. sakei [2]; 10 µM, 80°C 30 min): - | Antimicrobial activity after heat treatment (L. sakei [2]; 10 µM, 100°C 10 min): - | Antimicrobial activity after heat treatment (L. sakei [2]; 10 µM, 100°C 30 min): - | Antimicrobial activity after heat treatment (L. sakei [2]; 10 µM, 121°C 15 min): - | Antimicrobial activity, Untreated (L. sakei [2]; 10 µM, sample without the heat process): ++ | thermal stability of antimicrobial activity (L. sakei [2]; any heat treatment beyond 80°C for 10 minutes): lost its antimicrobial activity | thermal stability of antimicrobial activity (L. sakei [2]; heat treatment at 80°C for 10 minutes): retained its activity | Antimicrobial activity after pH treatment (L. sakei [3]; 10 µM, pH 4.0, 0 hr): ++ | Antimicrobial activity after pH treatment (L. sakei [3]; 10 µM, pH 4.0, 0.5 hr): ++ | Antimicrobial activity after pH treatment (L. sakei [3]; 10 µM, pH 4.0, 2 hr): ++ | Antimicrobial activity after pH treatment (L. sakei [3]; 10 µM, pH 4.0, 4 hr): + | Antimicrobial activity after pH treatment (L. sakei [3]; 10 µM, pH 4.0, 6 hr): + | Antimicrobial activity after pH treatment (L. sakei [3]; 10 µM, pH 4.0, 24 hr): + | Antimicrobial activity after pH treatment (L. sakei [3]; 10 µM, pH 7.4, 0 hr): - | Antimicrobial activity after pH treatment (L. sakei [3]; 10 µM, pH 7.4, 0.5 hr): - | Antimicrobial activity after pH treatment (L. sakei [3]; 10 µM, pH 7.4, 2 hr): - | Antimicrobial activity after pH treatment (L. sakei [3]; 10 µM, pH 7.4, 4 hr): - | Antimicrobial activity after pH treatment (L. sakei [3]; 10 µM, pH 7.4, 6 hr): - | Antimicrobial activity after pH treatment (L. sakei [3]; 10 µM, pH 7.4, 24 hr): - | Antimicrobial activity after pH treatment (L. sakei [3]; 10 µM, pH 10.0, 0 hr): - | Antimicrobial activity after pH treatment (L. sakei [3]; 10 µM, pH 10.0, 0.5 hr): + | Antimicrobial activity after pH treatment (L. sakei [3]; 10 µM, pH 10.0, 2 hr): - | Antimicrobial activity after pH treatment (L. sakei [3]; 10 µM, pH 10.0, 4 hr): - | Antimicrobial activity after pH treatment (L. sakei [3]; 10 µM, pH 10.0, 6 hr): - | Antimicrobial activity after pH treatment (L. sakei [3]; 10 µM, pH 10.0, 24 hr): - | Antimicrobial activity, Untreated (L. sakei [3]; 10 µM, untreated control prepared solely with 0.2% TFA aqueous solution): ++ | pH stability of antimicrobial activity (L. sakei [3]; result in words, neutral range and alkaline range): lost its antimicrobial activity
